The source of these data is US20140056903A1 (Regeneron, published 2014).

The target in assay [1] is T1, human GFRα3 expressed with a C-terminal myc-myc-hexahistidine tag (human, UniProt O60609 32-374, biotinylated (sites not given) in ELISA format 2 and in the Octet cross-competition; not in SPR).
T1 construct: also called hGFRα3-mmh; hGFRα3-mmH
Nature of the assay: Octet cross-competition; biotin-hGFRα3-mmH pre-saturated with first antibody H4H2352S. The protocol: (§1) A cross-competition assay was conducted to assess the ability of select antibodies to compete with one another for binding to human GFRα3 using an Octet RED384 biosensor (Fortebio Inc.). The entire experiment was performed at 25° C. with the flow rate of 1000 rpm in Octet HBST buffer (0.01 M HEPES pH7.4, 0.15M NaCl, 3 mM EDTA, 0.05% v/v Surfactant P20, 0.1 mg/mL BSA). To assess whether 2 antibodies were able to compete with one another for binding to their respective epitopes on biotinylated recombinant human GFRα3 expressed with a C-terminal myc-myc-hexahistidine tag (biotin-hGFRα3-mmH; SEQ ID:370), around ˜1.2 nm of biotin-hGFRα3-mmH was first captured onto streptavidin-coated Octet sensor tips (Fortebio Inc, #18-5019) by submerging the tips for 1 minute into a 10 μg/mL solution of biotin-hGFRα3-mmH. The antigen coated sensor tips were then placed into wells containing 25 μg/mL solution of a first anti-GFRα3 monoclonal antibody for 4 minutes to saturate the biotin-hGFRα3-mmH surface. The sensor tips were then subsequently dipped into wells containing 25 μ/mL solution of a second anti-GFRα3 monoclonal antibody. The sensor tips were washed in Octet HBST buffer in between every step of the experiment. The real-time binding response was monitored during the course of the experiment and the binding response at the end of every step was recorded as shown in FIG. 9. The response of mAb-2 binding to biotin-hGFRα3-mmH pre-complexed with the first antibody was compared and competitive/non-competitive behavior of different anti-GFRα3 monoclonal antibodies was determined.
On the technique in general: Biolayer interferometry detects binding as a change in optical thickness at a sensor tip.

Assay [2] concerns the target T1, human GFRα3 expressed with a C-terminal …. Description: Octet cross-competition; biotin-hGFRα3-mmH pre-saturated with first antibody H4H2291S. The protocol:
as §1

For assay [3] the target is unchanged. Nature of the assay: Octet cross-competition; biotin-hGFRα3-mmH pre-saturated with first antibody H4H2212N. As for the experimental part:
as §1

Assay [4] has the same target. Description: Octet cross-competition; biotin-hGFRα3-mmH pre-saturated with first antibody H4H2295S. As for the experimental part: as §1
Assay [5] shares this target. Description: Octet RED384; 25 µg/mL first antibody on streptavidin-captured biotin-hGFRα3-mmH. As for the experimental part:
as §1

In assay [6] the target is T2, human GFRα3 on HEK293/hGFRα3/hRET/SRE-luc cells (human, UniProt O60609 32-382).
T2 sequence: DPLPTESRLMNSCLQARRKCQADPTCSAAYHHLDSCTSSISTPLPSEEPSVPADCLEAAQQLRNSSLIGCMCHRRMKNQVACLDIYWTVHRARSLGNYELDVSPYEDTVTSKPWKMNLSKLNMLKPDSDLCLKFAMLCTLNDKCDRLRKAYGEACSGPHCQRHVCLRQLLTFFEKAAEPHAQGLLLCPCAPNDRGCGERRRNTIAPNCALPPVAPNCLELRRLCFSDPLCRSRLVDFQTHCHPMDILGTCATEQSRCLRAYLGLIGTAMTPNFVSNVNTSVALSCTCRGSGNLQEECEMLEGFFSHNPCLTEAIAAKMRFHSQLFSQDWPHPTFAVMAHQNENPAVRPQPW
Description: cell-based or functional assay.

The target of assay [7] is T1, human GFRα3 expressed with a C-terminal …. Nature of the assay: blocking ELISA 2, biotin-hGFRα3-mmH to coated hARTEMIN-mmH + hRET-10His. The essentials:
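Antibody serially diluted to ~100 nM was mixed 1 h at RT with 1 nM biotinylated hGFRα3-mmH, then added for 1 h to wells coated with an hARTEMIN-mmH/hRET-10His mixture. Free receptor read via streptavidin-HRP and TMB absorbance; IC50 is the 50% signal-reduction concentration.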
A general note: ELISA stands for enzyme-linked immunosorbent assay.

T1 sequence (O60609 other isoform, or with tags, fused parts or gaps limits assumed): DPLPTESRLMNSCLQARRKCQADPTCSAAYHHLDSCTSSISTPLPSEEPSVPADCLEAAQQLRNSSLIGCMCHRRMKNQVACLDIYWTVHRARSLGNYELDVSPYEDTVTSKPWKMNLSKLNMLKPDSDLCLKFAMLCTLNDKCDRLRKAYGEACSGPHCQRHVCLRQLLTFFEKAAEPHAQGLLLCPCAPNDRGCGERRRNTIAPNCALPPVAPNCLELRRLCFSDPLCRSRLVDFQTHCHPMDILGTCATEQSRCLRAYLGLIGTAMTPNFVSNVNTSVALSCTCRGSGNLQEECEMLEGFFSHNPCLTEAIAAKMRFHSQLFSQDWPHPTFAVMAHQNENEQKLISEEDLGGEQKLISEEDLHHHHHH

B1: H4H2352S (antibody, human IgG4, V domains shown)
VH: EVQLVQSGAEVKKPGASVKVSCKASGYTFTNYGITWVRQAPGQGLEWMGWISAYNGNTGYAQKFQGRVTMTTDTSTSTAYMELRSLRSDDTAVYYCAREDYDFWRAFDIWGQGTMVTVSS
VL: EIVLTQSPGTLSLSPGERATLSCRASQSVSSTYLAWLQQKPGQAPRLLIYGASSRATGIPDRFSGSGSGTDFTLTINRLEPEDFAVYYCQQYAYSPYTFGQGTKLEIK
notes: human IgG4 Fc (H4H); also called H4H2352S-1
Take B1: the “binding response of second antibody (nm)” value in assay [1] worked out at 0.1 nm; in assay [2] it was 2.03 nm; in assay [3], 0.08 nm; in assay [4], 1.85 nm. For the same molecule, the “Amount of Antibody 1 bound (nm)” value in assay [5] was found to be 2.74 nm. Moreover, the “IC50 (SRE-luc, HEK293/hGFRα3/hRET cells, 100 pM hARTEMIN-mmH)” value in assay [6] worked out at 0.92 nM. In assay [7], the “% max blocking” value came out at 100%. Moreover, the IC50 in assay [7] stood at 0.761 nM.

B2: H4H2292S (antibody, human IgG4, V domains shown)
VH: EVQLVESGGGVVQPGRSLRLSCAASGFTFSSYGMHWVRQAPGKGLEWVSFIWYDGSNKYYADSVKGRFTISRDNSKNTLYLQMNSLTAEDTAVYYCARRGILTGTTAFDIWGQGTMVTVSS
VL: DIQMTQSPSSLSASVGDRVTITCRASQSISSYLNWYQQKPGKAPKLLIYAASSLQSGVPSRFSGSGSGTDFTLTIRSLIPEDFATYYCQQTYNTPFTFGPGTKVEIK
notes: human IgG4 Fc (H4H)
For the molecule B2, the “binding response of second antibody (nm)” value in assay [1] is 0.15 nm; in assay [2] it was 1.94 nm; in assay [3], 1.76 nm; in assay [4], 1.8 nm. In addition, in assay [5], the “Amount of Antibody 1 bound (nm)” value was 2.82 nm. The “IC50 (SRE-luc, HEK293/hGFRα3/hRET cells, 100 pM hARTEMIN-mmH)” value in assay [6] worked out at 4.6 nM. Moreover, in assay [7], the “% max blocking” value is 100%. In addition, in assay [7], the IC50 came out at 1.76 nM.

B3: H4H2243N2 (antibody, human IgG4, V domains shown)
VH: QVQLVQSGAEVKKPGASVKVSCKASGYTFTSYGIIWVRQAPGQGLEWMGWISGYNGNTNYAQNLQGRVTMTTDTSTTTAYMELRSLRSDDTAVYYCARWGIATRPYYYYGMDVWGQGTTVTVSS
VL: DIQMTQSPSSLSASVGDRVTITCRASQDITNYLAWFQQKPGKAPKSLIYAASSLQSGVPSKFSGSGSGTDFTLTISSLQPEDFATYYCQQYNSYPPTFGPGTKVDIK
notes: human IgG4 Fc (H4H)
B3: the “binding response of second antibody (nm)” value was determined as 0.13 nm in assay [1], 0 nm in assay [2], 0.16 nm in assay [3] and 0.01 nm in assay [4]. The “Amount of Antibody 1 bound (nm)” value in assay [5] came to 2.42 nm. Further, the “IC50 (SRE-luc, HEK293/hGFRα3/hRET cells, 100 pM hARTEMIN-mmH)” value in assay [6] was found to be 0.3 nM. The “% max blocking” value in assay [7] is 95%. Moreover, the IC50 in assay [7] turned out to be 1.12 nM.

For orientation: IC50 means the concentration needed to halve the response being measured.
